Starred links: 1 amine or outer side, 2 acyl side, 3 side chain; linkers in the order of their positions; H or OH if unused. Positions of bridges follow the written chain, without caps; N, C: chain ends. Non-standard residues stand in square brackets, D forms with d. Yde = (2S)-2-amino-3-[4-[2-(dimethylamino)ethoxy]phenyl]propanoic acid, CN(C)CCOc1ccc(C[C@H](N[*:1])C(=O)[*:2])cc1; Trp(7-Me) = Cc1cccc2c(C[C@H](N)C(=O)O)c[nH]c12; αMeLys(Me2) = CN(C)CCCC[C@](C)(N)C(=O)O; 2Nal = N[C@@H](Cc1ccc2ccccc2c1)C(=O)O; AEF = NCCOc1ccc(C[C@H](N)C(=O)O)cc1; 3Pal = N[C@@H](Cc1cccnc1)C(=O)O; αMeL = CC(C)C[C@](C)(N)C(=O)O; Nmapt = not defined here; Thp = NC1(C(=O)O)CCOCC1; Aib = CC(C)(N)C(=O)O; Ahx = NCCCCCC(=O)O; Ava = NCCCCC(=O)O; βAla = NCCC(=O)O; Sar = CNCC(=O)O
T1: IL-23 receptor on the surface of HEK-Blue IL-23 cells (UniProt Q5VWK5 24-629, limits assumed)
T1 sequence (looked up): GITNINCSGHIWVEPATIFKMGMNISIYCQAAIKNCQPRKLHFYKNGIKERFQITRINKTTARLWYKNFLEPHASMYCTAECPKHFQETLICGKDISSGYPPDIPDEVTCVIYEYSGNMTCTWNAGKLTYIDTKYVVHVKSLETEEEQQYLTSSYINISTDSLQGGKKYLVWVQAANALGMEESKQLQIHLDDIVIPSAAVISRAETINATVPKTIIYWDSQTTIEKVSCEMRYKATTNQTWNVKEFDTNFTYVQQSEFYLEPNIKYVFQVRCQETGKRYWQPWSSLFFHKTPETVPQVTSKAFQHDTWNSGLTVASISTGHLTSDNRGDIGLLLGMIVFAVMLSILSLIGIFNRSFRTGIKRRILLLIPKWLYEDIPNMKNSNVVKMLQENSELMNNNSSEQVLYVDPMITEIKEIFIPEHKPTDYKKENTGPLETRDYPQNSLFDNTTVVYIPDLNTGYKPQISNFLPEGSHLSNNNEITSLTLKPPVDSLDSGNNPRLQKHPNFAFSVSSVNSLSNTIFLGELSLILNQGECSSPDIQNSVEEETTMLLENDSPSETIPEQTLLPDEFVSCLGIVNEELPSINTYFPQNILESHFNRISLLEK

B1: Compound of SEQ ID NO: 55 (peptide)
peptide: [Ava]CNT[Trp(7-Me)]K(Ac)C[Yde][2Nal][Thp]ENHX-NH2
modifications: lactam N-11; disulfide 2-7; not fully specified (residue 14); printed as Apt(§1)-C(@2)-N-T-Wim-K[Ac]-C(@2)-Yde-Nal-Thp-E(§1)-N—H-Mep-NH2
B2: Compound of SEQ ID NO: 51 (peptide)
peptide: [Ava]CNT[Trp(7-Me)]K(Ac)C[Yde][2Nal][Thp]EN[3Pal]-NH2
modifications: lactam N-11; disulfide 2-7
SMILES: CC(=O)NCCCC[C@@H]1NC(=O)[C@H](Cc2c[nH]c3c(C)cccc23)NC(=O)[C@H]([C@@H](C)O)NC(=O)[C@H](CC(N)=O)NC(=O)[C@@H]2CSSC[C@H](NC1=O)C(=O)N[C@@H](Cc1ccc(OCCN(C)C)cc1)C(=O)N[C@@H](Cc1ccc3ccccc3c1)C(=O)NC1(CCOCC1)C(=O)N[C@H](C(=O)N[C@@H](CC(N)=O)C(=O)N[C@@H](Cc1cccnc1)C(N)=O)CCC(=O)NCCCCC(=O)N2
B3: Compound of SEQ ID NO: 48 (peptide)
peptide: [Ava]CNT[Trp(7-Me)]K(Ac)C[Yde][2Nal][Aib]ENH[βAla]-NH2
modifications: lactam N-11; disulfide 2-7
SMILES: CC(=O)NCCCC[C@@H]1NC(=O)[C@H](Cc2c[nH]c3c(C)cccc23)NC(=O)[C@H]([C@@H](C)O)NC(=O)[C@H](CC(N)=O)NC(=O)[C@@H]2CSSC[C@H](NC1=O)C(=O)N[C@@H](Cc1ccc(OCCN(C)C)cc1)C(=O)N[C@@H](Cc1ccc3ccccc3c1)C(=O)NC(C)(C)C(=O)N[C@H](C(=O)N[C@@H](CC(N)=O)C(=O)N[C@@H](Cc1c[nH]cn1)C(=O)NCCC(N)=O)CCC(=O)NCCCCC(=O)N2
B4: Compound of SEQ ID NO: 52 (peptide)
peptide: [Ava]CNT[Trp(7-Me)]QC[Yde][2Nal][Aib]ENH-NH2
modifications: lactam N-11; disulfide 2-7
SMILES: Cc1cccc2c(C[C@@H]3NC(=O)[C@H]([C@@H](C)O)NC(=O)[C@H](CC(N)=O)NC(=O)[C@@H]4CSSC[C@H](NC(=O)[C@H](CCC(N)=O)NC3=O)C(=O)N[C@@H](Cc3ccc(OCCN(C)C)cc3)C(=O)N[C@@H](Cc3ccc5ccccc5c3)C(=O)NC(C)(C)C(=O)N[C@H](C(=O)N[C@@H](CC(N)=O)C(=O)N[C@@H](Cc3c[nH]cn3)C(N)=O)CCC(=O)NCCCCC(=O)N4)c[nH]c12
B5: Compound of SEQ ID NO: 56 (peptide)
peptide: [Ava]CNT[Trp(7-Me)]K(Ac)C[Yde][2Nal][Thp]ES[3Pal][Sar]-NH2
modifications: lactam N-11; disulfide 2-7
SMILES: CC(=O)NCCCC[C@@H]1NC(=O)[C@H](Cc2c[nH]c3c(C)cccc23)NC(=O)[C@H]([C@@H](C)O)NC(=O)[C@H](CC(N)=O)NC(=O)[C@@H]2CSSC[C@H](NC1=O)C(=O)N[C@@H](Cc1ccc(OCCN(C)C)cc1)C(=O)N[C@@H](Cc1ccc3ccccc3c1)C(=O)NC1(CCOCC1)C(=O)N[C@H](C(=O)N[C@@H](CO)C(=O)N[C@@H](Cc1cccnc1)C(=O)N(C)CC(N)=O)CCC(=O)NCCCCC(=O)N2
B6: Compound of SEQ ID NO: 43 (peptide)
peptide: [Ava]CNT[Trp(7-Me)]QC[Yde][2Nal][Aib]ESH-NH2
modifications: lactam N-11; disulfide 2-7
SMILES: Cc1cccc2c(C[C@@H]3NC(=O)[C@H]([C@@H](C)O)NC(=O)[C@H](CC(N)=O)NC(=O)[C@@H]4CSSC[C@H](NC(=O)[C@H](CCC(N)=O)NC3=O)C(=O)N[C@@H](Cc3ccc(OCCN(C)C)cc3)C(=O)N[C@@H](Cc3ccc5ccccc5c3)C(=O)NC(C)(C)C(=O)N[C@H](C(=O)N[C@@H](CO)C(=O)N[C@@H](Cc3c[nH]cn3)C(N)=O)CCC(=O)NCCCCC(=O)N4)c[nH]c12
B7: Compound of SEQ ID NO: 49 (peptide)
peptide: [Ava]CNT[Trp(7-Me)]K(Ac)C[Yde][2Nal][Thp]ENH[βAla]-NH2
modifications: lactam N-11; disulfide 2-7
SMILES: CC(=O)NCCCC[C@@H]1NC(=O)[C@H](Cc2c[nH]c3c(C)cccc23)NC(=O)[C@H]([C@@H](C)O)NC(=O)[C@H](CC(N)=O)NC(=O)[C@@H]2CSSC[C@H](NC1=O)C(=O)N[C@@H](Cc1ccc(OCCN(C)C)cc1)C(=O)N[C@@H](Cc1ccc3ccccc3c1)C(=O)NC1(CCOCC1)C(=O)N[C@H](C(=O)N[C@@H](CC(N)=O)C(=O)N[C@@H](Cc1c[nH]cn1)C(=O)NCCC(N)=O)CCC(=O)NCCCCC(=O)N2
B8: Compound of SEQ ID NO: 47 (peptide)
peptide: [Ava]CNT[Trp(7-Me)]K(Ac)C[Yde][2Nal][αMeL]ENH[Sar]-NH2
modifications: lactam N-11; disulfide 2-7
SMILES: CC(=O)NCCCC[C@@H]1NC(=O)[C@H](Cc2c[nH]c3c(C)cccc23)NC(=O)[C@H]([C@@H](C)O)NC(=O)[C@H](CC(N)=O)NC(=O)[C@@H]2CSSC[C@H](NC1=O)C(=O)N[C@@H](Cc1ccc(OCCN(C)C)cc1)C(=O)N[C@@H](Cc1ccc3ccccc3c1)C(=O)N[C@@](C)(CC(C)C)C(=O)N[C@H](C(=O)N[C@@H](CC(N)=O)C(=O)N[C@@H](Cc1c[nH]cn1)C(=O)N(C)CC(N)=O)CCC(=O)NCCCCC(=O)N2
B9: Compound of SEQ ID NO: 45 (peptide)
peptide: [Ava]CNT[Trp(7-Me)]K(Ac)C[Yde][2Nal][Aib]ENH[Sar]-NH2
modifications: lactam N-11; disulfide 2-7
SMILES: CC(=O)NCCCC[C@@H]1NC(=O)[C@H](Cc2c[nH]c3c(C)cccc23)NC(=O)[C@H]([C@@H](C)O)NC(=O)[C@H](CC(N)=O)NC(=O)[C@@H]2CSSC[C@H](NC1=O)C(=O)N[C@@H](Cc1ccc(OCCN(C)C)cc1)C(=O)N[C@@H](Cc1ccc3ccccc3c1)C(=O)NC(C)(C)C(=O)N[C@H](C(=O)N[C@@H](CC(N)=O)C(=O)N[C@@H](Cc1c[nH]cn1)C(=O)N(C)CC(N)=O)CCC(=O)NCCCCC(=O)N2
B10: Compound of SEQ ID NO: 54 (peptide)
peptide: [Ava]CNT[Trp(7-Me)]K(Ac)C[Yde][2Nal][αMeLys(Me2)]EN[dL]-NH2
modifications: lactam N-11; disulfide 2-7
SMILES: CC(=O)NCCCC[C@@H]1NC(=O)[C@H](Cc2c[nH]c3c(C)cccc23)NC(=O)[C@H]([C@@H](C)O)NC(=O)[C@H](CC(N)=O)NC(=O)[C@@H]2CSSC[C@H](NC1=O)C(=O)N[C@@H](Cc1ccc(OCCN(C)C)cc1)C(=O)N[C@@H](Cc1ccc3ccccc3c1)C(=O)N[C@@](C)(CCCCN(C)C)C(=O)N[C@H](C(=O)N[C@@H](CC(N)=O)C(=O)N[C@H](CC(C)C)C(N)=O)CCC(=O)NCCCCC(=O)N2
B11: Compound of SEQ ID NO: 50 (peptide)
peptide: [Ava]CNT[Trp(7-Me)]K(Ac)C[Yde][2Nal][αMeL]ENH[βAla]-NH2
modifications: lactam N-11; disulfide 2-7
SMILES: CC(=O)NCCCC[C@@H]1NC(=O)[C@H](Cc2c[nH]c3c(C)cccc23)NC(=O)[C@H]([C@@H](C)O)NC(=O)[C@H](CC(N)=O)NC(=O)[C@@H]2CSSC[C@H](NC1=O)C(=O)N[C@@H](Cc1ccc(OCCN(C)C)cc1)C(=O)N[C@@H](Cc1ccc3ccccc3c1)C(=O)N[C@@](C)(CC(C)C)C(=O)N[C@H](C(=O)N[C@@H](CC(N)=O)C(=O)N[C@@H](Cc1c[nH]cn1)C(=O)NCCC(N)=O)CCC(=O)NCCCCC(=O)N2
B12: Compound of SEQ ID NO: 46 (peptide)
peptide: [Ava]CNT[Trp(7-Me)]K(Ac)C[Yde][2Nal][Thp]ENH[Sar]-NH2
modifications: lactam N-11; disulfide 2-7
SMILES: CC(=O)NCCCC[C@@H]1NC(=O)[C@H](Cc2c[nH]c3c(C)cccc23)NC(=O)[C@H]([C@@H](C)O)NC(=O)[C@H](CC(N)=O)NC(=O)[C@@H]2CSSC[C@H](NC1=O)C(=O)N[C@@H](Cc1ccc(OCCN(C)C)cc1)C(=O)N[C@@H](Cc1ccc3ccccc3c1)C(=O)NC1(CCOCC1)C(=O)N[C@H](C(=O)N[C@@H](CC(N)=O)C(=O)N[C@@H](Cc1c[nH]cn1)C(=O)N(C)CC(N)=O)CCC(=O)NCCCCC(=O)N2
B13: Compound of SEQ ID NO: 53 (peptide)
peptide: [Ahx]C[Ava]WQC[AEF][2Nal][Aib]DAG-NH2
modifications: lactam N-10; disulfide 2-6
SMILES: C[C@H](NC(=O)[C@@H]1CC(=O)NCCCCCC(=O)N[C@H]2CSSC[C@H](NC(=O)[C@H](CCC(N)=O)NC(=O)[C@H](Cc3c[nH]c4ccccc34)NC(=O)CCCCNC2=O)C(=O)N[C@@H](Cc2ccc(OCCN)cc2)C(=O)N[C@@H](Cc2ccc3ccccc3c2)C(=O)NC(C)(C)C(=O)N1)C(=O)NCC(N)=O
B14: Compound of SEQ ID NO: 44 (peptide)
peptide: [Nmapt]CKWQC[AEF][2Nal][αMeL]EA[dL]-NH2
modifications: lactam N-10; disulfide 2-6; not fully specified (residue 3); printed as Nmapt(§1)-C(§3)(@2)-K[aAc](@3)-W-Q-C(@2)-Yae-Nal-Mle-E(§1)-A-(D-Leu)-NH2; reading uncertain; also: Cys2 carboxyl joined to Lys3 epsilon-NH2 (isopeptide bond)

molecular target: T1, IL-23 receptor on the surface of …; assay: cell-based or functional assay

| pSTAT3 (nM) | Binder |
| --- | --- |
| 0.95 | B1 |
| 0.05 | B2 |
| 9.66 | XCNTWQCXXXENN (Apt(§1)-C(@2)-N-T-W-Q-C(@2)-Yae-Nal-Aib-E(§1)-N-N-NH2) [Compound of SEQ ID NO: 5] |
| 0.6 | B3 |
| 1.25 | B4 |
| 0.16 | B5 |
| 1.31 | B6 |
| 1.79 | B7 |
| 0.57 | B8 |
| 0.67 | B9 |
| 2.59 | B10 |
| 0.98 | B11 |
| 0.84 | B12 |
| 60.8 | B13 |
| 42.5 | B14 |
